Patent publication US20040138156A1, “Therapeutic regulation of deoxyribonuclease-1-like-3 activity” (priority 2002, published 2004)
“Also recorded” adds a separate entry of the source. Read-outs that look alike come from different tables or passages of the source.

Assays:
free DNA = test: Radial diffusion assay (RDA) of nuclease activity against free DNA in conditioned media; assay type: biochemical; conditions: for RDA nuclease activity of conditioned media (in words): media conditioned by transfected HeLa cells
Protocol: (§1) Transfection Reagents and Resistance Assays. Lipofection of respective pcDNA3.1-D1 or -D3 ([…] purified with Promega Wizard Plus DNA system) was performed independently into 1-2 million HeLa cells, which produce a low background of secreted nuclease activity, when grown in DMEM with 10% FCS (LifeTech) in 6 well culture plates (Becton-Dickinson). […] Media of the transfected cells were conditioned for 36-48 hours and served as source of the respective enzymes. Nuclease activity in conditioned supernatant was measured by RDAs, zymograms and by testing activity against supercoiled pBluescript (Stratagene).
Nuclease Assays. Nuclease activity against “naked” or free DNA in CM was quantified by densitometry of RDAs. For assays of media by murine cells, RDAs were performed using conditioned media, after 36 hour incubation of equal numbers of target cell population. Each conditioned media was sampled in triplicate. RDAs for all four mice were performed on a single dish. For RDAs, 2-5 ul of conditioned supernatant was dotted on 100 mm dishes containing 2% agarose, 250 ug/ml DNA, 0.001% EtBr, 0.5% filtered milk, 10 mM Ca^+2/MgCl2; and 12.5 ug/ml kanamycin. Multiple observations were generated for every sample obtained. After 24 hours of 37° incubation, plates are photographed under UV transillumination; and scanned photos were analyzed with NIH image. For RDAs, the activity was quantified as the product of mean density and area (traced on image) of zones of clearing. For observations of serum/urine, 2-5 ul of serum were dotted on agarose plates.
(§2) Zymograms are in-gel renaturation assays performed by SDS-PAGE through a gel impregnated with 200 µg/ml DNA and ethidium bromide, eluting away SDS with repeated washes in 25 mM Tris-HCl pH 7.5, then incubating for 12-16 hours at 37° C. in 25 mM Tris-HCl pH 7.5 with 10 mM Ca^+2/Mg^+2 buffer. Activity is measured as dark “bands” of DNA digestion (Rosenthal et al., (1977) Anal. Biochem. 80, 76-90) and quantified using scanned images using NIH Image. Photographed RDA results were scanned 600 dpi Tiff images, and activity was measured as pixel area times density of traced zones of clearing (n=3 for each zone). Student's T-test was used to compare paired results. Nuclease activity ratios were obtained by comparing intra-plate results.

HeLa cells = test: BT assay: liposomal N1-eGFP transfection of HeLa cells in DNASE-conditioned media, GFP immunoblot; assay type: cell-based; conditions: for BT activity / GFP expression or transfection efficiency in cells exposed to undiluted conditioned media: FuGENE-6, anti-GFP immunoblot
Protocol: In the main assay, an eukaryotic marker such as green fluorescent protein (GFP) expression plasmid complexed with a lipid reagent is transfected into HeLa cells incubated in control media, D1L3-conditioned media, or D1-conditioned media (FIG. 4). The assay is not limited to the use of GFP as a marker, but could use any of many expressed biomarkers encoded by nucleotides that can be assayed either immunochemistry, fluorescent detection, or enzymatic detectection, and these include but are not circumscribed to luciferase, chloramphenicol acetyl-transferase, antibiotic or chemical resistance genes, Beta-galactosidase, FLAG-, myc-hemaglutinnin-, or other epitope tagged molecules, as well as other markers of gene or nucleotide transduction. The endpoint of the assay is the detection of a synthesized protein, but could easily have been the detection of a transcribed gene product, since the assay ultimately measures the ability of D1L3 added the media/milieu overlaying the cells to block the ultimate association of an expressible plasmid with the transcriptional machinery.
as §1
To test for the ability of the nucleases to block transfection, the media in individual wells of naive HeLa cells were replaced with conditioned media, and cells transfected with […] of N1-eGFP plasmid (Clontech) using various transfection reagents (FIG. 11) and their respective protocols. GFP expression by immunoblot directly correlated with transfection efficiency in present experiments. Thus, transfection efficiency was compared by densitometric analysis of GFP immunoblots.
GFP expression was also examined by fluorescent microscopy using a FITC filter. For microscopy, cells were fixed for 5 minutes in 4% paraformaldehyde dissolved into 1% PBS.
Antibody Reagents and Immunoblotting. After 24-36 hours, cells transfected with N1-eGFP were lysed in SDS-buffer and immunoblotted for expression with anti-GFP at 1:5000 dilution (Clontech). To confirm nearly equal protein loading per lane, anti-β-actin monoclonal antibody at 1:7,000 dilution (Sigma) were prepared. For immunoblots, […] protein was eletrophoretically separated by 12% SDS-PAGE gel, followed by electrotransfer to Immobilon-P membranes (Millipore) for expression studies. Immunoblotting was performed using ECL detection (Amersham).
Transfection efficiency was compared, wherever possible, by pixel densitometry of the scanned images using Scion Image 4.02 software.

DNA = test: DNA-SDS zymogram of nuclease activity; assay type: biochemical
Protocol: as §2
Prokaryotic Expression and GST Purification. Human D1L3-GST expression was performed by growing transformed BL21 Cells (Stratagene) at log phase were induced in 50 mg/ml IPTG for 5-7 hours at 32°. Bacterial pellets were lysed in 1×SDS-PAGE buffer and loaded on SDS-12% PAGE.

Row | Molecule | RDA nuclease activity of conditioned media (in words) (free DNA) | BT activity / GFP expression or transfection efficiency in cells exposed to undiluted conditioned media (HeLa cells) | nuclease activity by zymogram (in words) (DNA) | also measured
1 | Y261 C: Human DNASE1L3 with Tyr>Cys at aa 261, HA-tagged, expressed in HeLa (protein, UniProt Q13609 21-305, looked up, variant Y261C, HA tag, Human DNASE1L3 with Tyr>Cys at aa 261, HA-tagged, expressed in HeLa) Deoxyribonuclease gamma: MRICSFNVRSFGESKQEDKNAMDVIVKVIKRCDIILVMEIKDSNNRICPILMEKLNRNSRRGITYNYVISSRLGRNTYKEQYAFLYKEKLVSVKRSYHYHDYQDGDADVFSREPFVVWFQSPHTAVKDFVIIPLHTTPETSVKEIDELVEVYTDVKHRWKAENFIFMGDFNAGCSYVPKKAWKNIRLRTDPRFVWLIGDQEDTTVKKSTNCAYDRIVLRGQEIVSSVVPKSNSVFDFQKACKLTEEEALDVSDHFPVEFKLQSSRAFTNSKKSVTLRKKTKSKRS | complete loss of function | complete loss of function | complete loss of function | RDA nuclease activity of conditioned media (in words) (free DNA; listed as 261 C): only faint, if any, activity; BT activity / GFP expression or transfection efficiency in cells exposed to undiluted conditioned media (HeLa cells; listed as 261 C): absence of barrier activity; nuclease activity by zymogram (in words) (DNA; listed as 261 C): no activity
2 | N191K: Human D1L3 with N191K mutation, expressed as GST fusion in E. coli (protein) MRICSFNVRSFGESKQEDKNAMDVIVKVIKRCDIILVMEIKDSNNRICPILMEKLNRNSRRGITYNYVISSRLGRNTYKEQYAFLYKEKLVSVKRSYHYHDYQDGDADVFSREPFVVWFQSPHTAVKDFVIIPLHTTPETSVKEIDELVEVYTDVKHRWKAENFIFMGDFKAGCSYVPKKAWKNIRLRTDPRFVWLIGDQEDTTVKKSTNCAYDRIVLRGQEIVSSVVPKSNSVFDFQKAYKLTEEEALDVSDHFPVEFKLQSSRAFTNSKKSVTLRKKTKSKRS |  |  | no detectable nuclease activity | 
3 | D3DCT: Murine D1L3 truncated by a stop codon at Ser-289, lacking the basic C-terminus (289-310) (protein) LRLCSFNVRSFGASKKENHEAMDIIVKIIKRCDLILLMEIKDSSNNICPMLMEKLNGNSRRSTTYNYVISSRLGRNTYKEQYAFVYKEKLVSVKTKYHYHDYQDGDTDVFSREPFVVWFHSPFTAVKDFVIVPLHTTPETSVKEIDELVDVYTDVRSQWKTENFIFMGDFNAGCSYVPKKAWQNIRLRTDPKFVWLIGDQEDTTVKKSTSCAYDRIVLCGQEIVNSVVPRSSGVFDFQKAYDLSEEEALDVSDHFPVEFKLQS | greater RDA activity than D3 | did not differ significantly from controls; also recorded: no significant decrease |  | RDA nuclease activity of conditioned media (in words) (free DNA; listed as D3 pCT): slightly increased nuclease activity; BT activity / GFP expression or transfection efficiency in cells exposed to undiluted conditioned media (HeLa cells; listed as D3 ρCT): unaffected
4 | 89I: Murine D1L3 variant of NZ and MRL strains, isoleucine for threonine at residue 89 (protein) LRLCSFNVRSFGASKKENHEAMDIIVKIIKRCDLILLMEIKDSSNNICPMLMEKLNGNSRRSTIYNYVISSRLGRNTYKEQYAFVYKEKLVSVKTKYHYHDYQDGDTDVFSREPFVVWFHSPFTAVKDFVIVPLHTTPETSVKEIDELVDVYTDVRSQWKTENFIFMGDFNAGCSYVPKKAWQNIRLRTDPKFVWLIGDQEDTTVKKSTSCAYDRIVLCGQEIVNSVVPRSSGVFDFQKAYDLSEEEALDVSDHFPVEFKLQSSRAFTNNRKSVSLKKRKKGNRS |  | saturated BT activity |  | RDA-nuclease activity relative to the 89T enzyme (free DNA; in vitro): about half; defect in BT activity (HeLa cells; normalized to immunoblotted D3 protein levels, versus 89T, n=6): ~8 fold; GFP transfection in ten-fold diluted conditioned media (HeLa cells; ten-fold (five and ten fold) dilution of conditioned media): liposomal gene transfection is possible; also recorded: shows transfection; zymogram nuclease activity relative to 89T-transfected cells (DNA; HeLa-expressed, normalized to immunoblotted D1L3 levels, n=16): 44%; decreased zymogram activity relative to protein levels (DNA; versus 89T, GST fusions and HeLa-expressed enzymes): ~50%
5 | N196K-D3: Murine D1L3 with conserved asparagine 196 changed to lysine; inactive nuclease (protein) LRLCSFNVRSFGASKKENHEAMDIIVKIIKRCDLILLMEIKDSSNNICPMLMEKLNGNSRRSTTYNYVISSRLGRNTYKEQYAFVYKEKLVSVKTKYHYHDYQDGDTDVFSREPFVVWFHSPFTAVKDFVIVPLHTTPETSVKEIDELVDVYTDVRSQWKTENFIFMGDFKAGCSYVPKKAWQNIRLRTDPKFVWLIGDQEDTTVKKSTSCAYDRIVLCGQEIVNSVVPRSSGVFDFQKAYDLSEEEALDVSDHFPVEFKLQSSRAFTNNRKSVSLKKRKKGNRS | Nearly no clearing; also recorded: negligible background RDA activity; also recorded: no nuclease activity above background | did not differ significantly from controls; also recorded: incapable of providing a barrier to transfection | no nuclease activity above background | 
